# Measurements as given in the supplement of paper PMC10567573.
# ± gives the standard deviation.
# Assay: protein stability index of a GFP-peptide fusion (GPS, HEK-293T) (PSI 1-6); higher = more stable
# [1] = treatment: DMSO, c terminus: a fixed tail appended
# [2] = treatment: MLN4924 1 uM, 8 h, c terminus: a fixed tail appended
# [3] = treatment: DMSO, c terminus: native
# [4] = treatment: MLN4924 1 uM, 8 h, c terminus: native
# 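Also: 24-mer peptide tiles fused after GFP, lentivirally expressed, FACS-sorted into six equal bins by GFP/DsRed ratio, decoded by Illumina sequencing, PSI is the read-weighted mean bin number.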
Sequence,protein stability index [1],protein stability index [2],protein stability index [3],protein stability index [4]
KYGDIPRGIFVVRGENVVLLGEID [LSM1],2.27 ± 0.093,2.4 ± 0.32,–,–
KYRNPSLKLMVNVCGHTLCESCVD [MNAT1],2.53 ± 0.34,2.83 ± 0.31,–,–
KYSVYIYVYFHTKLTSQNSKRVS [R3HDM1],–,–,2.55 ± 0.71,2.24 ± 0.15
LALDREPPPHLLPEKHQVPEKLIW [WDR88],3.31 ± 0.32,3.17 ± 0.3,–,–
LALRTLPGPSWVRGSGPSVLSRLQ [ALKBH7],2.62 ± 0.14,2.48 ± 0.3,–,–
LAMNYKHGDPIPKVEFTEEEIKTW [TPH1],4.21 ± 0.33,4.35 ± 0.24,–,–
LARGPLNQTALHLAAAHGHSEVVE [RIPK4],4.36 ± 0.18,4.55 ± 0.19,–,–
LASARIIEQDAVVPSEWLSSVYKQ [GMCL1],3.31 ± 0.17,3.19 ± 0.24,–,–
LASLSFIDTVYSTAFAPKMIVDLL [OR4A15],2.66 ± 0.32,3.05 ± 0.34,–,–
LAVYHRLWDRAYVRLKPALQRLDF [RETREG3],2.31 ± 0.38,2.56 ± 0.4,–,–
LCQVAQEALASAGASCCGQPLASH [VENTX],3.38 ± 0.27,3.42 ± 0.15,–,–
LDAVEAQIGCKLPDDYRCSYRIHN [FBXO3],2.98 ± 0.39,3.15 ± 0.33,–,–
LDQLDESLRDKVLQLQKGSDTEAQ [INTS3],5.46 ± 0.12,5.31 ± 0.21,–,–
LDRVRGGRQKYKRRPEVDPLPFPG [ESRRA],3.68 ± 0.36,3.92 ± 0.41,–,–
LEAGLPLQVRGYPEEKKEEEGSAN [CHGA],5.61 ± 0.35,5.79 ± 0.15,–,–
LEALHLEALCEEDLLLWIQKHTEV [DENND6A],2.68 ± 0.17,2.84 ± 0.67,–,–
LEFFYGIATATEIAYYSYIYSVVD [SLC19A2],3.5 ± 0.48,3.27 ± 0.46,–,–
LEFRSFWELIGEAAKSVKLERPVR [S100A14],1.87 ± 0.2,2.33 ± 0.35,–,–
LELIEPLIKFQVGLKKLNLHEEEH [VDR],2.73 ± 0.21,2.9 ± 0.42,–,–
LELQRQREARKRALARKQAQEQLR [RSPH3],3.95 ± 0.31,4.06 ± 0.49,–,–
LESTLAETEARYSSQLAQMQCLIS [KRT36],3.08 ± 0.17,3.18 ± 0.32,–,–
LETQAQVCQALAQVDGGANFSVDR [CPOX],4.85 ± 0.18,4.96 ± 0.14,–,–

Sequence,protein stability index [1],protein stability index [2],protein stability index [3],protein stability index [4]
LEVADFLIKAGADIELGCSTPLME [ANKRD17],2.89 ± 0.56,2.82 ± 0.22,–,–
LFEAGDATLASDLQDWASVGAFL [FOXJ1],–,–,3.59 ± 0.15,3.49 ± 0.34
LFLMDLSEGELGGPSEPGGTHPED [RHOBTB2],4.45 ± 0.22,4.33 ± 0.23,–,–
LGDCMRTLGYMPTEMELLEVSQHI [CABP4],2.46 ± 0.31,2.57 ± 0.23,–,–
LGPVPREDQAEAWGCSCCPPETKH [TSPAN10],4.91 ± 0.083,4.97 ± 0.32,–,–
LGRPDSLELQRQREARKRALARKQ [RSPH3],4.6 ± 0.17,4.43 ± 0.19,–,–
LHIPMYFFLAILSCSEICYTFIIV [OR10K2],3.65 ± 0.48,3.18 ± 0.38,–,–
LHVKRSMGWKKACDELELHQRFLR [ZMYND11],2.31 ± 0.12,2.55 ± 0.45,–,–
LIFFGGYGYLPEDKVLGTFEFDET [KLHDC2],2.13 ± 0.66,2.6 ± 0.73,–,–
LIIFDKQSSQRMRQNLKLLVEETS [CEP70],2.1 ± 0.25,2.04 ± 0.35,–,–
LILASELSRLSVNSVTAGDYSRPL [TSN],2.45 ± 0.33,2.37 ± 0.19,–,–
LIVHIALPSWADICTNLCEALQNF [M1AP],3.02 ± 0.56,3.09 ± 0.24,–,–
LKKSRGKFIKPWESPDEMELDELL [PTPRD],3.52 ± 0.35,3.15 ± 0.44,–,–
LKKYLEPRCPRMVLSLKEGAREED [FBXO3],4.56 ± 0.34,4.19 ± 0.41,–,–
LKSMDKNGTMTIDWNEWRDYHLLH [SLC25A25],2.27 ± 0.05,2.19 ± 0.28,–,–
LLDEIVPVYRRDCHEEVYAGSHQY [ACBD3],3.03 ± 0.13,3.13 ± 0.26,–,–
LLEATCPFGENAEFPADISSITEA [NFE2L1],4.48 ± 0.28,4.65 ± 0.17,–,–
LLHLDLKPANILLDAHYHVKISDF [RIPK4],2.45 ± 0.32,2.36 ± 0.48,–,–
LLIVKLEEDCAWSQELPPPDPGPS [ZNF263],2.33 ± 0.29,2.42 ± 0.29,–,–
LLLELKGLQEEPVEGFRVTLVDEG [CDC34],2.64 ± 0.29,2.66 ± 0.21,–,–
LLLEMLTFNPHKRISAFRALQHSY [CDK4],2.43 ± 0.32,2.41 ± 0.25,–,–
LLLLSKAKLVPSEREASPSNSCQD [IKZF1],3.31 ± 0.099,3.14 ± 0.15,–,–
